The assay addresses recombinant TLR4 protein. Nature of the assay: ELISA: TLR4 coated on the plate, MD2 titrated from 133.3 to 0.065 nM, anti-MD2 detection, nonlinear regression. On the technique in general: ELISA stands for enzyme-linked immunosorbent assay.

The source of these data is patent publication US20170260241A1.

As to recombinant MD2 protein (ligand), the dissociation constant (Kd) – broadly, the free concentration of one partner at which half of the binding sites on the other are occupied at equilibrium, for simple one-to-one binding – worked out at 18.4 nM.
